Experimental data taken from PMC3192995.

Experiments:
Assay in all cases: two-hybrid
[1] = target: PwHAP5 N77, residues 1-77, fused in pGBKT7 (yeast two-hybrid bait) (Picea wilsonii)
[2] = target: PwHAP5, full-length coding region, fused in pGBKT7 (yeast two-hybrid bait) (Picea wilsonii)
[3] = target: PwHAP5 C130, residues 92-221, fused in pGBKT7 (yeast two-hybrid bait) (Picea wilsonii)

Measured: fold beta-galactosidase activity over the controls

PwFKBP12 in pGADT7-Rec (yeast two-hybrid prey) (natural protein)
20 fold: all assays above
